From paper PMC3646955

Key:
Assay in all cases: purified protein
Format in all cases: biochemical, Serratia marcescens
[1] = test system: O=P(O)(O)OP(=O)(O)OP(=O)(O)OC[C@H]1O[C@@H](n2cnc3c(O)ncnc32)[C@H](O)[C@@H]1O; settings: 750 μM SPT, 50 mM Tris-HCl pH 7.5, 10 mM MgCl2, 50 mM KCl, 25 °C
[2] = test system: Nc1ccn([C@@H]2O[C@H](COP(=O)(O)OP(=O)(O)OP(=O)(O)O)[C@@H](O)[C@H]2O)c(=O)n1; settings: 750 μM SPT, 50 mM Tris-HCl pH 7.5, 10 mM MgCl2, 50 mM KCl, 25 °C
[3] = test system: O=c1ccn([C@@H]2O[C@H](COP(=O)(O)OP(=O)(O)OP(=O)(O)O)[C@@H](O)[C@H]2O)c(=O)[nH]1; settings: 750 μM SPT, 50 mM Tris-HCl pH 7.5, 10 mM MgCl2, 50 mM KCl, 25 °C
[4] = test system: CN[C@@H]1[C@H](O)[C@H](NC)[C@H]2O[C@@]3(O)C(=O)C[C@@H](C)O[C@H]3O[C@@H]2[C@H]1O; settings: 200 μM ATP, 50 mM Tris-HCl pH 7.5, 10 mM MgCl2, 50 mM KCl, 25 °C
[5] = test system: CCN[C@@H]1C[C@H](N)[C@@H](O[C@H]2OC(CN)=CC[C@H]2N)[C@H](O)[C@H]1O[C@H]1OC[C@](C)(O)[C@H](NC)[C@H]1O; settings: 500 μM acetyl-CoA
[6] = test system: NC[C@H]1O[C@H](O[C@H]2[C@H](O)[C@@H](O[C@H]3O[C@H](CO)[C@@H](O)[C@H](N)[C@H]3O)[C@H](N)C[C@@H]2N)[C@H](N)C[C@@H]1O; settings: 500 μM acetyl-CoA
[7] = test system: NC[C@H]1O[C@H](O[C@H]2[C@H](O[C@@H]3O[C@H](CO)[C@@H](O)[C@H]3O)[C@@H](O)[C@H](N)C[C@@H]2N)[C@H](N)[C@@H](O)[C@@H]1O; settings: 500 μM acetyl-CoA, 50 mM HEPES pH 7.5
[8] = test system: NC[C@@H]1O[C@H](O[C@H]2[C@@H](O)[C@H](O[C@@H]3[C@@H](O)[C@H](N)C[C@H](N)[C@H]3O[C@H]3O[C@H](CN)[C@@H](O)[C@H](O)[C@H]3N)O[C@@H]2CO)[C@H](N)[C@@H](O)[C@@H]1O; settings: 500 μM acetyl-CoA, 50 mM HEPES pH 7.5
[9] = test system: CN[C@@H]1[C@@H](O)[C@@H](O[C@@H]2[C@@H](O)[C@H](O[C@H]3OC(CN)=CC[C@H]3N)[C@@H](N)C[C@H]2N)OC[C@]1(C)O; settings: 500 μM acetyl-CoA
[10] = test system: NCC[C@H](O)C(=O)N[C@@H]1C[C@H](N)[C@@H](O[C@H]2O[C@H](CN)[C@@H](O)[C@H](O)[C@H]2O)[C@H](O)[C@H]1O[C@H]1O[C@H](CO)[C@@H](O)[C@H](N)[C@H]1O; settings: 500 μM acetyl-CoA, 50 mM HEPES pH 7.5, AAC(6′) domain
[11] = 50 mM HEPES pH 7.5, AAC(6′) domain

CHis6-tagged ANT(3″)-Ii(1-266) (Serratia marcescens)
Km [1]: 12.6 ± 1.5 µM
kcat [1]: 0.481 ± 0.013 s⁻¹
kcat/Km [1]: 38100 ± 4500 M⁻¹ s⁻¹
Km [2]: 33.3 ± 5.6 µM
kcat [2]: 0.709 ± 0.04 s⁻¹
kcat/Km [2]: 21300 ± 3800 M⁻¹ s⁻¹
Km [3]: 26.2 ± 5.7 µM
kcat [3]: 0.603 ± 0.047 s⁻¹
kcat/Km [3]: 23000 ± 5300 M⁻¹ s⁻¹
Km [4]: 0.123 ± 0.015 µM
kcat [4]: 5.13 ± 0.11 s⁻¹
kcat/Km [4]: 4.15e+07 ± 5.1e+06 M⁻¹ s⁻¹

NHis6-tagged AAC(6′)-IId(267-463) (Serratia marcescens)
Km ([5]; 50 mM HEPES pH 7.5): 3.87 ± 0.90 µM
kcat ([5]; 50 mM HEPES pH 7.5): 3.21 ± 0.2 s⁻¹
kcat/Km ([5]; 50 mM HEPES pH 7.5): 829000 ± 200000 M⁻¹ s⁻¹
Km ([6]; 50 mM HEPES pH 7.5): 14.8 ± 3.4 µM
kcat ([6]; 50 mM HEPES pH 7.5): 3.73 ± 0.25 s⁻¹
kcat/Km ([6]; 50 mM HEPES pH 7.5): 252000 ± 60000 M⁻¹ s⁻¹
Km [7]: 69.3 ± 4.5 µM
kcat [7]: 5.7 ± 0.12 s⁻¹
kcat/Km [7]: 82200 ± 5600 M⁻¹ s⁻¹
Km [8]: 32.1 ± 11.1 µM
kcat [8]: 11.1 ± 1 s⁻¹
kcat/Km [8]: 346000 ± 124000 M⁻¹ s⁻¹
Km ([9]; 50 mM HEPES pH 7.5): 4.92 ± 1.14 µM
kcat ([9]; 50 mM HEPES pH 7.5): 5.35 ± 0.27 s⁻¹
kcat/Km ([9]; 50 mM HEPES pH 7.5): 1.09e+06 ± 260000 M⁻¹ s⁻¹

NHis10-tagged ANT(3″)-Ii/AAC(6′)-IId (Serratia marcescens)
Km [10]: 0.556 ± 0.130 µM
kcat [10]: 2.92 ± 0.1 s⁻¹
kcat/Km [10]: 5.25e+06 ± 1.25e+06 M⁻¹ s⁻¹
Km [5, 11]: 1.77 ± 0.41 µM
kcat [5, 11]: 1.91 ± 0.08 s⁻¹
kcat/Km [5, 11]: 1.08e+06 ± 250000 M⁻¹ s⁻¹
Km [6, 11]: 7.92 ± 0.53 µM
kcat [6, 11]: 3.84 ± 0.07 s⁻¹
kcat/Km [6, 11]: 485000 ± 34000 M⁻¹ s⁻¹
Km [9, 11]: 2.20 ± 0.60 µM
kcat [9, 11]: 2.93 ± 0.16 s⁻¹
kcat/Km [9, 11]: 1.33e+06 ± 370000 M⁻¹ s⁻¹
